Data published in patent US20230322924A1 (Janssen / Centocor, published 2023).
Like-named read-outs stand apart in the source and are kept apart here.

Key:
Cyno CD3e = Cyno CD3e (cynomolgus monkey, UniProt Q95LI5 22-198); test: cell-based or functional assay
Cyno CD33 full length = Cyno CD33 full length (cynomolgus monkey); test: cell-based or functional assay
Human CD33 full length [1] = target: T1, Human CD33 full length (human, UniProt P20138 18-364); test: cell-based or functional assay
Human CD33 full length [2] = target: T1, Human CD33 full length; test: cell-based or functional assay; remark: listed apart in the source
Rh-CD19 = target: T2, Rh-CD19 (UniProt P15391 20-291, limits assumed); test: Biacore 8K SPR, antibody over immobilised protein
T2 construct: rh read as recombinant human
T2 sequence (looked up): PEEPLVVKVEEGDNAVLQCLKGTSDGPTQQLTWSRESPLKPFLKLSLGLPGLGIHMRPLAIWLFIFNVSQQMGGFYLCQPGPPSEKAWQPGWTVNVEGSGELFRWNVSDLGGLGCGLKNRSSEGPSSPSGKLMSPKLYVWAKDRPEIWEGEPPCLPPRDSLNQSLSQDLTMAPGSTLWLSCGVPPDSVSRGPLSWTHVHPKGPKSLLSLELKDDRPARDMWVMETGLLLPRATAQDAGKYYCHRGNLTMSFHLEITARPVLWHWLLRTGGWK
Protocol: (§1) Non-specific binding of the lead molecule to unrelated surfaces is determined by biosensor technology (Biacore 8K). Antibody is passed over SPR surfaces coated with unrelated proteins. […] Irrelevant surfaces include negatively charged protein (Soy Trypsin Inhibitor), positively charged protein (Lysozyme and β-defensin), hydrophobic (Rh-integrin a4b7), human IgG, sticky protein (Rh-CD19). Proper controls are used in this experiment. Lead is flown over two surfaces, one is a blank and the other has a molecule directly immobilized. The response unit (RU) level is determined by subtracting the blank RU from the test surface RU. […] A response unit ≥100 predicts high risks for non-specific binding to charged/hydrophobic/IgG surfaces which would create challenges during manufacturing and translate to poor PK properties.

Rh-integrin a4b7 = target: T3, Rh-integrin a4b7 (UniProt P13612 34-977; P26010 20-723, limits assumed); test: Biacore 8K SPR, antibody over immobilised protein
T3 construct: rh read as recombinant human
Protocol: as §1

[3] = target: T4, chimpanzee PSMA on HEK cells (chimpanzee, UniProt H2Q3K5 1-750); test: flow cytometry, mammalian Fab supernatant on chimp-PSMA HEK cells (PSMG9), anti-human kappa-RPE
T4 construct: also called chimp-PSMA HEK; PSMG9
T4 sequence (H2Q3K5 entry or part of it limits assumed): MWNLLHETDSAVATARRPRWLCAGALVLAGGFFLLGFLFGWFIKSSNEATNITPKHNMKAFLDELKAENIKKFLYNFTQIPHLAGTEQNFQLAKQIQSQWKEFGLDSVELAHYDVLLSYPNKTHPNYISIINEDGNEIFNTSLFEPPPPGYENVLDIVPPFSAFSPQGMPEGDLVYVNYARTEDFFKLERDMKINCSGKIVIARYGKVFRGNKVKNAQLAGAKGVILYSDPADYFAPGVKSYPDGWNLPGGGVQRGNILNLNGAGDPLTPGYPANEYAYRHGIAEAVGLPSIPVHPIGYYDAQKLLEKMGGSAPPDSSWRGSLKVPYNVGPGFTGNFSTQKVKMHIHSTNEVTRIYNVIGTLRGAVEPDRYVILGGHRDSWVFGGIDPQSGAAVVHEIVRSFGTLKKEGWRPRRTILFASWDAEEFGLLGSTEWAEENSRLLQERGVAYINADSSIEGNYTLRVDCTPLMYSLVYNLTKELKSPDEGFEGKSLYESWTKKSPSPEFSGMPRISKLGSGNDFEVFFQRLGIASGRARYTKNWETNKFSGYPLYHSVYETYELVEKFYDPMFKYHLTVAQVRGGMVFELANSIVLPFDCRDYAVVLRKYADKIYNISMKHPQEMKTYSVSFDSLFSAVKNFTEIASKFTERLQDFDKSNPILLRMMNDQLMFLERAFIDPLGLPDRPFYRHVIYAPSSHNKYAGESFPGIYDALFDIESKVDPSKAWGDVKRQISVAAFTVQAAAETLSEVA
Protocol: (§2) Individual Fab clones were isolated from the round 3 output of all panning experiments following pIX excision. Fab clones were tested for binding to chimp and cyno PSMA expressing HEK cells, as well as to human PSMA on LNCaP cells. Briefly, PSMA expressing cells were aliquoted into a V-bottom plate (CoStar 3357) at a density of 200,000 per well and incubated with (100 μl) supernatants expressing Fab fragments for 1 hour on ice. Cells were washed twice with PBS containing 2% FBS, and stained with a mouse anti-human kappa-RPE antibody (Life Technologies cat #MH10514) for 1 hour on ice. Cells were washed twice with PBS containing 2% FBS and resuspended in […] of the same wash buffer. Plates were read on a BD FACS Array flow cytometer. FACS data was analyzed in FlowJo software by live gating the healthy population of cells using forward scatter and side scatter, and then analyzing the cells within this gate for PE staining. Mean fluorescence intensity (MFI) was calculated and exported into Microsoft Excel. […] Fabs were sequenced and moved forward for cloning into mammalian expression vector for rescreening. True positives were selected from the binding of mammalian cell expressed Fab supernatants to PSMA-expressing cell lines.
(§3) FIGS. 22A, 22B, 22C and 22D show the titration curves for anti-PSMA panning hits vs. LNCaP cells. […]

[4] = target: T5, human PSMA on cells (LNCaP) (human, UniProt Q04609 1-750); test: flow cytometry, mammalian Fab supernatant on LNCaP cells, anti-human kappa-RPE
T5 construct: whole, on cells; also called LNCaP cells
T5 sequence (Q04609 whole entry): as the sequence (H2Q3K5 entry or part of it limits assumed) above, with L155S, H281R, Y475H, N613S, T647S, L660V, D727E, S733Y counted along it
Protocol: as §2
FIGS. 22A, 22B, 22C and 22D show the titration curves for anti-PSMA panning hits vs. LNCaP cells. […] Binding profiles among hits were compared across cell lines expressing different species of PSMA.

[5] = target: T4, chimpanzee PSMA on HEK cells; test: flow cytometry, mammalian Fab supernatant on chimp-PSMA HEK cells (PSMG9), anti-human kappa-RPE; remark: listed apart in the source
Protocol: as §2, §3

[6] = target: human IL1RAP on NCI-H1975 cells (human); test: cell-based or functional assay
[7] = target: T6, human IL1RAP (interleukin-1 receptor accessory protein) on LAMA-84 cells (human); test: cell-based or functional assay
[8] = target: T6, human IL1RAP (interleukin-1 receptor …); test: cell-based or functional assay; remark: listed apart in the source

T1 sequence (P20138 18-364 limits assumed): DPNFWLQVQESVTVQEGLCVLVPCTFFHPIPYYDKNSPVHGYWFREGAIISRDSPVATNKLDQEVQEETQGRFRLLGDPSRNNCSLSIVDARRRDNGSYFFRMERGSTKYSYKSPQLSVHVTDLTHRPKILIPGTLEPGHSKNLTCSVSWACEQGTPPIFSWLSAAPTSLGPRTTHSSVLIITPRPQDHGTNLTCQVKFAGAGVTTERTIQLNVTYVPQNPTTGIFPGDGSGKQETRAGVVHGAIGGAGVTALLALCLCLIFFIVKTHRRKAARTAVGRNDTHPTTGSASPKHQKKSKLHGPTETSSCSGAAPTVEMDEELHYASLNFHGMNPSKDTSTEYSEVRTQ
Sequence of Cyno CD3e (Q95LI5 22-198): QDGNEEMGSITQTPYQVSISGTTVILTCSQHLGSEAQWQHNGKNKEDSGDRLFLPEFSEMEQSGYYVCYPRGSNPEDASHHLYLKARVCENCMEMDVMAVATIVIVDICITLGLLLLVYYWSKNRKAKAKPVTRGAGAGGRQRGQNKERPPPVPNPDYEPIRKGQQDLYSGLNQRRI

B1: C3CB189 (bispecific antibody, IgG4, V domains shown)
VH 1: EVQLVESGGGLVQPGRSLRLSCAASGFTFDDYAMHWVRQAPGKGLEWVSGIGWSGGSIVYADSVKGRFTISRDNAKNSLYLQMNSLRAEDTALYYCAKDSPYGDFFDYWGQGTLVTVSS
VL 1: DIVMTQSPDSLAVSLGERATINCKSSQTVFYSSNNKNYLAWYQQKPGQPPKLLISWASTRKSGVPDRFSGSGSGTDFTLTVSSLQAEDVAVYYCQHYYSTPYTFGQGTKLEIK
VH 2: QVQLQQSGPRLVRPSQTLSLTCAISGDSVFNNNAAWSWIRQSPSRGLEWLGRTYYRSKWLYDYAVSVKSRITVNPDTSRNQFTLQLNSVTPEDTALYYCARGYSSSFDYWGQGTLVTVSS
VL 2: QSALTQPASVSGSPGQSITISCTGTSSNIGTYKFVSWYQQHPDKAPKVLLYEVSKRPSGVSSRFSGSKSGNTASLTISGLQAEDQADYHCVSYAGSGTLLFGGGTKLTVL
Cyno CD3e
  T cell activation EC50: 0.02 nM
Cyno CD33 full length
  CD33^+ CD14^+ Killing EC50: 3.6 nM
Human CD33 full length [1]
  CD33^+ CD14^+ Killing EC50: 1.16 nM
  MOLM13 Killing EC50: 0.168 nM
Human CD33 full length [2]
  Primary AML Cell Killing EC50: 0.578 nM

B2: TMEB762 (antibody, human IgG4 S228P, kappa, F234A L235A, V domains shown)
VH: EVQLLESGGGLVQPGGSLRLSCAASGFTFSSYSMSWVRQAPGKGLEWVSVISGSGGFTDYADSVKGRFTISRDNSKNTLYLQMNSLRAEDTAVYYCARMPLNSPHDYWGQGTLVTVSS
VL: DIQMTQSPSSLSASVGDRVTITCRASQGIRNDLGWYQQKPGKAPKLLIYAASSLQSGVPSRFSGSGSGTDFTLTISSLQPEDFATYYCLQDYNYPLTFGGGTKVEIKR
notes: IgG4 PAA; also called TMEH459/DL3L129
Rh-CD19
  binding result: no binding (tested: response unit ≥100 predicts high risks)
Rh-integrin a4b7
  binding result: no binding (tested: response unit ≥100 predicts high risks)

B3: PSMM18 (Fab, V domains shown)
VH: EVQLVQSGAEVKKPGESLKISCKGSGYSFTSYWIGWVRQMPGKGLEWMGIIYPGDSDTRYSPSFQGQVTISADKSISTAYLQWSSLKASDTAMYYCARAYHYSKGLDYWGQGTLVTVSS
VL: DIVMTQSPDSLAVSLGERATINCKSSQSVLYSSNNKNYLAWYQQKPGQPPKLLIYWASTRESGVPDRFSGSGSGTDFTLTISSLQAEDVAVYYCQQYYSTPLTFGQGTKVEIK
notes: Mammalian Fab supernatant; also called PSMB18
[3]
  EC50 (read off the curve): ~0.3 µg/mL
[4]
  binding result: binds

B4: PSMM87 (Fab, V domains shown)
VH: QVQLVQSGAEVKKPGSSVKVSCKASGGTFKSYDISWVRQAPGQGLEWMGGIIPIEGTANYAQKFQGRVTITADESTSTAYMELSSLRSEDTAVYYCARDYPAGYGFDYWGQGTLVTVSS
VL: not shown
notes: Mammalian Fab supernatant; also called PSMB86
[5]
  EC50 (read off the curve): ~0.4 µg/mL
[4]
  EC50 (read off the curve): ~0.2 µg/mL

B5: IC3B19 (bispecific antibody, human IgG4 S228P, kappa, F234A L235A)
heavy: not shown
light: DIQLTQSPSFLSASVGDRVTITCRASQGISSYLAWYQQKPGKAPKLLIYAASTLQSGVPSRFSGSGSGTEFTLTISSLQPEDFATYYCQQVNSYPLTFGGGTKVEIKRTVAAPSVFIFPPSDEQLKSGTASVVCLLNNFYPREAKVQWKVDNALQSGNSQESVTEQDSKDSTYSLSSTLTLSKADYEKHKVYACEVTHQGLSSPVTKSFNRGEC
VH: EVQLVESGGGLVQPGGSLRLSCAASGFTFNTYAMNWVRQAPGKGLEWVARIRSKYNNYATYYAASVKGRFTISRDDSKNSLYLQMNSLKTEDTAVYYCARHGNFGNSYVSWFAYWGQGTLVTVSS
VL: QTVVTQEPSLTVSPGGTVTLTCRSSTGAVTTSNYANWVQQKPGQAPRGLIGGTNKRAPGTPARFSGSLLGGKAALTLSGVQPEDEAEYYCALWYSNLWVFGGGTKLTVL
[6]
  cytotoxicity EC50, caspase 3/7 assay, NCI-H1975 cells with pan T cells: 0.018 nM

B6: IC3B19 (IAPB57×CD3B219) IL1RAP×CD3 bispecific antibody (bispecific antibody, human IgG4 S228P, kappa, F234A L235A)
heavy: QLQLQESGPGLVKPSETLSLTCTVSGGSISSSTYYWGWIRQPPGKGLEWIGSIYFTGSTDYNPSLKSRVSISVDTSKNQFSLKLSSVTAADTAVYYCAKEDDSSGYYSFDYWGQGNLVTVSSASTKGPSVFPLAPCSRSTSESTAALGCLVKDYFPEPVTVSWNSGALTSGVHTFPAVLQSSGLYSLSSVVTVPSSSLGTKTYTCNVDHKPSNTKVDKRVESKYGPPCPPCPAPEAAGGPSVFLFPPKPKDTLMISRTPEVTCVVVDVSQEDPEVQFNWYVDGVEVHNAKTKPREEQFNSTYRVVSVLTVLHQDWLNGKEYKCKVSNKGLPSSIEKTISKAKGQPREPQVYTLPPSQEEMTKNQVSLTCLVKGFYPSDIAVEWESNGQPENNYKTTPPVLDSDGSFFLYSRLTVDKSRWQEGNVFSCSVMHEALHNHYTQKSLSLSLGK
light: B5 light
VH: B5 VH
VL: B5 VL
[7]
  Cytotoxicity EC50 (nM), LAMA-84 cell line, whole blood T cell cytotoxicity assay, 48 h: 2.1 nM
[8]
  T-cell Activation EC50 (nM) (CD25), LAMA-84 cell line, whole blood assay, 48 h: 4.24 nM

B7: IC3B34 (bispecific antibody, human IgG4 S228P, kappa, F234A L235A)
heavy: not shown
light: B5 light
VH: B1 VH 2
VL: B1 VL 2
[6]
  cytotoxicity EC50, caspase 3/7 assay, NCI-H1975 cells with pan T cells: 0.057 nM

B8: IC3B34 (IAPB57×CD3B376) IL1RAP×CD3 bispecific antibody (bispecific antibody, human IgG4 S228P, kappa, lambda, F234A L235A)
heavy 1: not shown
light 1: B5 light
heavy 2: QVQLQQSGPRLVRPSQTLSLTCAISGDSVFNNNAAWSWIRQSPSRGLEWLGRTYYRSKWLYDYAVSVKSRITVNPDTSRNQFTLQLNSVTPEDTALYYCARGYSSSFDYWGQGTLVTVSSASTKGPSVFPLAPCSRSTSESTAALGCLVKDYFPEPVTVSWNSGALTSGVHTFPAVLQSSGLYSLSSVVTVPSSSLGTKTYTCNVDHKPSNTKVDKRVESKYGPPCPPCPAPEAAGGPSVFLFPPKPKDTLMISRTPEVTCVVVDVSQEDPEVQFNWYVDGVEVHNAKTKPREEQFNSTYRVVSVLTVLHQDWLNGKEYKCKVSNKGLPSSIEKTISKAKGQPREPQVYTLPPSQEEMTKNQVSLTCLVKGFYPSDIAVEWESNGQPENNYKTTPPVLDSDGSFLLYSKLTVDKSRWQEGNVFSCSVMHEALHNHYTQKSLSLSLGK
light 2: QSALTQPASVSGSPGQSITISCTGTSSNIGTYKFVSWYQQHPDKAPKVLLYEVSKRPSGVSSRFSGSKSGNTASLTISGLQAEDQADYHCVSYAGSGTLLFGGGTKLTVLGQPKAAPSVTLFPPSSEELQANKATLVCLISDFYPGAVTVAWKADSSPVKAGVETTTPSKQSNNKYAASSYLSLTPEQWKSHRSYSCQVTHEGSTVEKTVAPTECS
[7]
  Cytotoxicity EC50 (nM), LAMA-84 cell line, whole blood T cell cytotoxicity assay, 48 h: 2.76 nM
[8]
  T-cell Activation EC50 (nM) (CD25), LAMA-84 cell line, whole blood assay, 48 h: 7.83 nM

B9: C3CB88 (bispecific antibody, IgG4, V domains shown)
VH 1: B1 VH 1
VL 1: B1 VL 1
VH 2: B5 VH
VL 2: B5 VL
Cyno CD3e
  T cell activation EC50: 0.02 nM
Cyno CD33 full length
  CD33^+ CD14^+ Killing EC50: 0.89 nM
Human CD33 full length [1]
  CD33^+ CD14^+ Killing EC50: 0.506 nM
  MOLM13 Killing EC50: 0.671 nM
Human CD33 full length [2]
  Primary AML Cell Killing EC50: 0.672 nM
